According to patent US8236527B2, “Recombinant production of authentic human proteins using human cell expression systems” (Humanzyme Limited, priority 2008, dated 2012):

Tests used:
Format in all cases: cell-based
human CD4+ T cells = assay: IL-23 activity: IL-17 secretion from human CD4+ T cells (ELISA)
Description: (A) IL-23 activities determined by the dose-dependent secretion of IL-17 from mouse splenocytes activated with 10 ng/ml PMA. (B) IL-23 activities determined by the dose-dependent secretion of IL-17 from human CD4+ T cells stimulated with […] plate bound anti-CD3 and […] soluble anti-CD28 in the presence of Th17 polarizing cytokines.
FIG. 22: Efficient differentiation of Th17 cells with authentic cytokines expressed in human cells. Whole CD4+ T cells isolated from a healthy donor were stimulated with 2 μg/mL plate bound anti-CD3 and 1 μg/mL soluble anti-CD28 in the presence of Th17 polarizing cytokines, including a titration of IL-23. After 5 days, supernatants were harvested for measurement of IL-17 by ELISA. See (A)-(G). FIG. 22 (H) depicts flow cytometry analysis on Human Th17 Differentiation by Authentic human TGF-β1. See Example 17 below.
IL-17-producing CD4+ T cells (Th17 cells) have been identified as a unique subset of T helper cells that develop along a pathway that is distinct from the Th1 and Th2-cell differentiation pathways. This finding has provided exciting new insights into immunoregulation, host defense and the pathogenesis of autoimmune diseases. Recently it has been shown that TGF-β1, […], IL-6 and IL-23 are important in driving human Th17 differentiation (Chen & O'Shea (2008) Cytokines 41:71). […] The activities were further assayed with human CD4+ cells which were isolated from a healthy donor and stimulated with 10 μg/ml plate bound anti-CD3 and 10 μg/ml soluble anti-CD28 in the presence of Th17 polarizing cytokines. After 5 days supernatants were harvested for measurement of IL-17 by ELISA.

mouse splenocytes = assay: IL-23 activity: dose-dependent secretion of IL-17 from mouse splenocytes activated with PMA; conditions: 10 ng/ml PMA
[1] = test system: whole CD4+ cells from a healthy donor; assay: Th17 polarizing cytokines: IL-17 secretion from human CD4+ cells (ELISA); conditions: compared with cytokines from insect cell or bacterial expression system, 5 days
Excerpt: IL-17-producing CD4+ T cells (Th-17 cells) have been identified as a unique subset of Th cells that develop along a pathway that is distinct from the Th1, and Th2-cell differentiation pathways. This finding has provided exciting new insights into immunoregulation, host defense and the pathogenesis of autoimmune diseases. Recently it has been shown that IL1β, IL6 and IL23 are important in driving human Th17 differentiation. However, TGF-β1, which is important for the differentiation of murine Th17 cells, is reported to be not required, and even inhibits human Th17 differentiation (McGeachy & Cua (2008) Immunity 28:445, Chen & O'Shea (2008) Cytokines 41:71). In this study, whole […] cells isolated from a healthy donor were stimulated with 10 μg/mL plate bound anti-CD3 and 10 μg/ml soluble anti-CD28 in the presence of Th17 polarizing cytokines from the inventive human cell expression system and from an insect cell or bacterial expression system. After 5 days supernatants were harvested for measurement of IL-17 by ELISA.

B1: authentic human IL-23: IL-23 from engineered human HEK293 cells, disulfide-linked heterodimer of 55 kD (protein, UniProt Q9NPF7 20-189; P29460 23-328, looked up)
Interleukin-23 subunit alpha: RAVPGGSSPAWTQCQQLSQKLCTLAWSAHPLVGHMDLREEGDEETTNDVPHIQCGDGCDPQGLRDNSQFCLQRIHQGLIFYEKLLGSDIFTGEPSLLPDSPVGQLHASLLGLSQLLQPEGHHWETQQIPSLSPSQPWQRLLLRFKILRSLQAFVAVAARVFAHGAATLSP
Interleukin-12 subunit beta: IWELKKDVYVVELDWYPDAPGEMVVLTCDTPEEDGITWTLDQSSEVLGSGKTLTIQVKEFGDAGQYTCHKGGEVLSHSLLLLHKKEDGIWSTDILKDQKEPKNKTFLRCEAKNYSGRFTCWWLTTISTDLTFSVKSSRGSSDPQGVTCGAATLSAERVRGDNKEYEYSVECQEDSACPAAEESLPIEVMVDAVHKLKYENYTSSFFIRDIIKPDPPKNLQLKPLKNSRQVEVSWEYPDTWSTPHSYFSLTFCVQVQGKSKREKKDRVFTDKTSATVICRKNASISVRAQDRYYSSSWSEWASVPCS
fold more potent than the cytokine produced from insect cells (FIG. 21 heading) (human CD4+ T cells; assay not specified in the heading): 500 fold
concentration at which maximum induction of IL-17 secretion was achieved (human CD4+ T cells; human CD4+ cells, 5 days): 0.1 ng/mL
fold more potent for inducing IL-17 secretion than insect cell IL-23 (human CD4+ T cells; human CD4+ cells, anti-CD3 and anti-CD28, Th17 polarizing cytokines, 5 days): 100 fold
activity relative to insect cell IL-23, IL-17 secretion from mouse splenocytes (mouse splenocytes): ten fold more active
induction of IL-17 secretion [1]: significantly more effective
